Measurements taken from PMC5979349, “The Recombinant Inhibitor of DNA Binding Id2 Forms Multimeric Structures via the Helix-Loop-Helix Domain and the Nuclear Export Signal” (International Journal of Molecular Sciences, 2018).

Experiments:
[1] = biological target: the molecule itself; assay: MALDI-TOF mass spectrometry; lyophilized protein dissolved in water, α-cyano-4-hydroxycinnamic acid as matrix
[2] = biological target: the molecule itself; assay: dynamic light scattering; Id2’ 80 μM in pure water, 21 °C, measured immediately after filtration (0.2 μm); globular model for molecular weight
[3] = biological target: the molecule itself; assay: NMR diffusion-ordered spectroscopy (DOSY); unlabeled Id2’ at 0.27 mM in H2O/D2O (94:6, v/v); calibration curve with protein standards
[4] = biological target: the molecule itself; assay: dynamic light scattering; Id2’ 80 μM in pure water, 21 °C, two weeks old filtered sample; globular model for molecular weight

| Protein | stoichiometry N [1] | stoichiometry N [2] [monomers] | stoichiometry N [3] [monomers] | stoichiometry N [4] [monomers] |
| --- | --- | --- | --- | --- |
| recombinant full-length human Id2 protein, preparation with oligomers of the type Id2nβMEn (natural protein, UniProt Q02363 1-134, looked up, mixed disulfide with βME, as Id2nβMEn (n = 2–4), the His-tag of pET22b(+) was excluded by a double stop; Another preparation of the same construct as m1; the formula implies one βME for each monomer, so one cysteine of each monomer is free or in an intermolecular disulfide) MKAFSPVRSVRKNSLSDHSLGISRSKTPVDDPMSLLYNMNDCYSKLKELVPSIPQNKKVSKMEILQHVIDYILDLQIALDSHPTIVSLHHQRPGQNQASRTPLTTLNTDISILSLQASEFPSELMSNDSKALCG | 2 to 4 | – | – | – |
| recombinant full-length human Id2 protein, sample Id2’ (natural protein, UniProt Q02363 1-134, looked up, both cysteine residues (Cys-42 and Cys-133) disulfide-bonded to β-mercaptoethanol (βME); one oxidized methionine residue, Met(O), the His-tag of pET22b(+) was excluded by a double stop; The most homogeneous unlabeled preparation; also called Id2 1–134) MKAFSPVRSVRKNSLSDHSLGISRSKTPVDDPMSLLYNMNDCYSKLKELVPSIPQNKKVSKMEILQHVIDYILDLQIALDSHPTIVSLHHQRPGQNQASRTPLTTLNTDISILSLQASEFPSELMSNDSKALCG | – | 3 | ~16 | 16 |
